According to publication PMC3537852:

Assays:
[1] = molecular target: myc-tagged full-length mAKAPβ with an internal deletion of residues 1257–1886; assay: co-IP
[2] = molecular target: His-mAKAP 1286–1833; assay: SPR

| percent reduction of RSK3 binding against full-length mAKAPβ [1] | fold decrease of binding affinity against unphosphorylated RSK3 [2] | Substance |
| --- | --- | --- |
| > 85% | – | HA-tagged RSK3 (type 3 p90 ribosomal S6 kinase) (from UniProt Q15349 1-733) (enzyme) |
| – | 8 fold | His-RSK3, full-length, ERK and PDK1-phosphorylated (from UniProt Q15349 1-733) (enzyme) |
| – | 5 fold | His-RSK3, full-length, ERK-phosphorylated (from UniProt Q15349 1-733) (enzyme) |
